This is an account of results in patent US20240076389A1 (NATIONAL RESEARCH COUNCIL OF CANADA, published 2024).

Assay [1] has as its target T1, human AXL expressed on the cell surface of tumor cell lines (human, UniProt P30530 26-894).
T1 construct: whole, on cells; also called cell surface-expressed AXL; cell-based AXL
T1 sequence (looked up): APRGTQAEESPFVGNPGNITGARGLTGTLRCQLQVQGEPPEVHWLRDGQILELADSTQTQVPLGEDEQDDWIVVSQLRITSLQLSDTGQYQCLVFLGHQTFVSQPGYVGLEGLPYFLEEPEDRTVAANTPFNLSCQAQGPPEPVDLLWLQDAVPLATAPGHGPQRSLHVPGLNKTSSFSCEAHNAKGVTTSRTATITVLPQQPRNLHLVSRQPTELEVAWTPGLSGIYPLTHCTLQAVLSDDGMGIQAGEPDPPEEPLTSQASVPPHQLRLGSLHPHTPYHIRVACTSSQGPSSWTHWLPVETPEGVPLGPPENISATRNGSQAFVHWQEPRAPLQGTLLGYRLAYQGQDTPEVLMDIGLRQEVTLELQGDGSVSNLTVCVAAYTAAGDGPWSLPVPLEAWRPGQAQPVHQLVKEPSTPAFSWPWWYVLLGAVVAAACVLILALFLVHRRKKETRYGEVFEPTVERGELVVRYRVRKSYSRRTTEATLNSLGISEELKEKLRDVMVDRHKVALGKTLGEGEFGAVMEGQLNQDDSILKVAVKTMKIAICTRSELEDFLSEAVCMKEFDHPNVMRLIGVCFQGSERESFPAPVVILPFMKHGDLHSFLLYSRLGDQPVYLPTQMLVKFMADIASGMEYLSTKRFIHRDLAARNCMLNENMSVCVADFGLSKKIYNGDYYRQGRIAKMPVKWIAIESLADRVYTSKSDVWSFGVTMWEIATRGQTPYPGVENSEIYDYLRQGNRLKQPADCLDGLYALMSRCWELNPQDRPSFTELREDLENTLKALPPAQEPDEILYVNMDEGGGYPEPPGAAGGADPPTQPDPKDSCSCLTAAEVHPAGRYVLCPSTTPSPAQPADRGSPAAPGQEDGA
The assay can be described thus: flow cytometry on H292 cells, one site-specific binding with Hill slope. On the procedure: Detection of antibody binding to surface AXL by flow cytometry. Prior to analysis, cells were plated such that they were not more than 80% confluent on the day of analysis. Cells were washed in PBS and harvested by the addition of cell dissociation buffer (Sigma). A cell suspension containing 2.5×10⁵ cells (in 500 μl corresponding cell culture media) was incubated with various concentrations (0.01-10 nM) of anti-AXL antibodies for 2 h at 4° C. (to prevent internalization). Following one wash with cell culture media, primary antibody was incubated with 2 μg DYLIGHT™ 488 conjugated AffiniPure goat anti-mouse IgG Alexa 488 secondary antibody (Jackson ImmunoResearch) in 100 μl of media for 1 h at 4° C. Prior to analysis, cell pellets were re-suspended in 300-500 μl media and filtered through a 50 μm nylon mesh filter to remove cell aggregates. Flow cytometry analyses were performed on 10,000 viable cells gated on forward scattering, side scattering parameters and propidium iodide dye exclusion using a BD LSRII flow Cytometer (Becton-Dickinson Biosciences, CA, USA) and a standard filter set using BD FACSDiva™ acquisition software, according to manufacturer's instructions.
Specific detection of antibody binding was calculated as the mean fluorescent intensity of binding to each primary antibody after background level subtraction of the mean fluorescent intensity of binding in the absence of primary antibody (but containing detection antibody). Binding parameters Bmax, (maximum fluorescence signal at receptor saturation), and KD (apparent cell binding constant) were then determined using a One site—Specific binding with Hill slope model in GraphPad Prism v 6.0.

For assay [2], the target named is T2, AXL fragment # 3 (AXL amino acids 26-138, IgL1).
T2 chain: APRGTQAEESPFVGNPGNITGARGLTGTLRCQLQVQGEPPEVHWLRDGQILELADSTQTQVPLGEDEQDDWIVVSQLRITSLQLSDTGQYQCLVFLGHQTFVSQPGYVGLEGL
The experiment in a line: yeast surface display of hAXL fragments, whole yeast cell ELISA, signal normalised to anti-MYC. The source says:
(§1) Epitope mapping. […] The YSD vector (pPNL6) was from The Pacific Northwest National Laboratory, USA.

For assay [3], the target named is T3, AXL fragment # 1 (AXL amino acids 135-226, IgL2).
T3 chain: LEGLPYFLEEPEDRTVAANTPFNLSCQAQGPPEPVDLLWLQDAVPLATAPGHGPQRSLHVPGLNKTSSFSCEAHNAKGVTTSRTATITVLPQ
The experiment in a line: yeast surface display of hAXL fragments (Aga2-HA-(hAXL)-MYC), whole yeast cell ELISA, signal normalised to anti-MYC.
Text: as §1

Assay [4] addresses T4, AXL fragment # 7 (AXL amino acids 135-335, IgL2+FN III-1).
T4 chain: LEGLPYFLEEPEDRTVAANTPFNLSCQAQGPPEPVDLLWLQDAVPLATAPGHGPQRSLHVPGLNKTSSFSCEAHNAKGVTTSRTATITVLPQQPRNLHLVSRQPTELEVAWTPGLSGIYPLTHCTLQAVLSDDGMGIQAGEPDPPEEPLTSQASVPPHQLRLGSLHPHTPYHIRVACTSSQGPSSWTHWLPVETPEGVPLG
Described as above.
Text: as §1

For assay [5], the target named is T5, cyAXL-ECD displayed on yeast.
T5 construct: extracellular domain; 'cy' read as cynomolgus
The assay can be described thus: yeast surface display ELISA, non-denatured yeast, goat anti-human F(ab')2-HRP.

The target of assay [6] is T6, huTyro3-ECD displayed on yeast (human, UniProt Q06418 41-429).
T6 construct: extracellular domain
T6 sequence (looked up): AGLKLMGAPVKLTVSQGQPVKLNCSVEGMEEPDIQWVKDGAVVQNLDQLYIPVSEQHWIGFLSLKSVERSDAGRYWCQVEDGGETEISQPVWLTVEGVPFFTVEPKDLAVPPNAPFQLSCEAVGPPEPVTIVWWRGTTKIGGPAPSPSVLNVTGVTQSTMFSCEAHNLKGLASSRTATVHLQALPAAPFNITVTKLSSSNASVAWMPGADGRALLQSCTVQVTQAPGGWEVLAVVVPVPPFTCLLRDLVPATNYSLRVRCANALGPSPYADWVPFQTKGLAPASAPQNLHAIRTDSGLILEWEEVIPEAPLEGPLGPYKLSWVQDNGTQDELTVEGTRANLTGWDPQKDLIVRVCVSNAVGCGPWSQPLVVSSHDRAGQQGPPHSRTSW
The description is as above.

Where a chain is given by its changes, count along the chain named.

B1: F111-5E9 (antibody, V domains shown)
VH: QIQLVQSGPELKKPGETVKISCKASGYTFTKYGMNWVKQAPGKGLKWMGWINTYTGEPTYADDFKGRFAFSLETSASTAYLQINNLTTEDMVTYFCAKGGYYSNPIYPMDYWGQGTSVTVSS
VL: DIQMTQTTSSLSASLGDRVTISCRASQDINNYLNWYQQKPDGTVKLLIYYISRLHSGVPSRFSGSGSGTDYSLTISNLELEDVATYFCQQGNTLPFTFGSGTKLEIK
notes: also called F111-5E9-2; mAb 5E9
Regarding B1, in assay [1], the Bmax was 1150 MFI. The binding result in assay [2] is “no binding”; in assay [3], “binds”; in assay [4] it was “binds”.

B2: F107-10G1 (antibody, V domains shown)
VH: EVNLVESGGGVVKPGASLKLSCEASGFTFSNYGMSWVRQTSDKRLEWVASISGGGGRTYYLDNVKGRFIISRENAKNTLYLQMSSLKSEDTALFYCARGARASYFAMDYWGQGSSVTVSS
VL: VIVMTQSHKFMSTSVGDRVSITCKASQDVTTAVAWYQQKPGQSPKLLIYWASTRHTGVPDRFTGSGSGTDYSLTISNVQTEDLAFYYCQQHFTTPLTFGAGTKLELK
notes: also called F107-10G1-3
In assay [1], B2 gave a Bmax of 937 MFI.

B3: hFC-F107-10G1 (antibody, human IgG1, kappa, V domains shown)
VH: B2 VH
VL: VIVMTQSHKFMSTSVGDRVSITCKASQDVTTAVAWYQQKPGQSPKLLIYWASTRHTGVPDRFTGSGSGTDYSLTISNVQTEDLAFYYCQQHFTTPLTFGAGTKLELKR
notes: Chimeric mAb, human IgG1 / human kappa constant regions; also called mAb F107-10G1
Turning to B3, the “yeast ELISA signal normalized to myc expression level” value in assay [5] is 1.14; in assay [6], -0.023.

B4: F107-8D12 (antibody, V domains shown)
VH: QVQLQQPGAELVKPGASVQLSCKASGYTFISFWINWVKQRPGQGLEWMGNIFPGSSSTNYNEKFKSKATLTVDKSSSTAYMQLSSLTSEDSAVYFCARDYYGGSPDYWGQGTTLTVSS
VL: DIVMSQSPSSLAVSAGERVTMSCKSSQSLLNTRTRKNYLAWYQQKPGQSPKLLIYWASTRESGVPDRFTGSGSGTDFTLTISSVQAEDLAVYYCKQSYNLWTFGGGTKLEIK
notes: also called F107-8D12-2; mAb 8D12
The molecule B4 came in with a Bmax in assay [1] of 1310 MFI.

B5: F107-7H5 (antibody, V domains shown)
VH: QVQLQQPGAELVKPGASVKLSCKASGYTFTSYWINWVKQRPGQGLEWIGNIYPDSSSTNYNEKFKSKATLTVDKSSTTAYIQFSSLTSEDSAVYYCTRDTYGGSPDYWGQGTTLTVSS
VL: B4 VL with R18K, T32S, N37I, E61Q
notes: also called F107-7H5-2; mAb 7H5
Molecule B5 showed a Bmax in assay [1] of 1430 MFI.

B6: NRC-sdAb001-Fc (VHH-human IgG1 Fc fusion) (Fc fusion)
chain: QVKLEESGGGLVQAGGSLRLSCTASASISSFDIMGWYRQAPGKQRELVAAITTLDIANYRDSVKGRFTISRDNAKNTVYLQMDSLKPEDTARYHCAAFQSDQNYWGQGTQVTVSS
notes: VHH fused N-terminally to human IgG1 Fc, made in HEK293 cells; also called NRC-sdAb0001-Fc; NRC-sdAb001-hIgG1; not shown: human IgG1 Fc
In the case of B6, the “yeast ELISA signal normalized to myc expression level” value came to 0.824 in assay [5] and 0.017 in assay [6].

B7: F111-3C8 (antibody, V domains shown)
VH: QVQLQQPGAELGKPGTSVKLSCKASGYTFTSYWMHWVKRVPGQGLEWIGNINPNSTSADYNEKFKRKATLTVDKSSSTAYMQLSTLTSEDSAVYYCTRPLMGPYWYFDVWGTGTTVTVSS
VL: QIVLTQSPAIMSASPGEKVTISCSASSSVSYMYWYQQKPGSSPKPWIYRTSNLASGVPARFSGSGSGTSYSLTISSMEAEDAATYYCQQYHNYPPTFGGGTKLEIK
notes: also called F111-3C8-2
Regarding B7, in assay [1], the Bmax came out at 1480 MFI. Moreover, the binding result is “no binding” in assay [2], “binds” in assay [3] and “binds” in assay [4].
